Laboratory results: US20220041738A1 (SAITAMA MEDICAL UNIVERSITY, published 2022)

Assays:
[1] = target: T1, human ALK2(WT)-EGFP on cells (human, UniProt Q04771 21-509); experiment: flow cytometry on transfected HEK293A cells, Alexa 647 anti-rat IgG (APC-A) against EGFP (FITC-A)
T1 construct: also called hALK2(WT)-EGFP; human ALK2-EGFP; not shown: EGFP fused to ALK2
T1 sequence: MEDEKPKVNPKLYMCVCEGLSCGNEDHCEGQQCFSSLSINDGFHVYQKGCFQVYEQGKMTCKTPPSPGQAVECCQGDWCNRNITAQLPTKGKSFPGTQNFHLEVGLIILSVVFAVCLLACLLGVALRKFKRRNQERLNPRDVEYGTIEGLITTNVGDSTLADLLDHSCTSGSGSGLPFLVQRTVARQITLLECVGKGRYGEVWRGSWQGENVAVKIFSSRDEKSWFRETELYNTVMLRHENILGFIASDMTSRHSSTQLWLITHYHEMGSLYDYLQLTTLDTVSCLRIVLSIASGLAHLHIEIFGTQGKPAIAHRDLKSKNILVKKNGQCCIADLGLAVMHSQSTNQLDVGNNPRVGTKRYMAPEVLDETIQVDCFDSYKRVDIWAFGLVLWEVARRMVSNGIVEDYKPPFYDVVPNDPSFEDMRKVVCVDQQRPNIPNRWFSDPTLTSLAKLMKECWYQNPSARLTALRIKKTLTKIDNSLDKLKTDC
Description: (§1) HEK293A cells were seeded into a 100-mm dish at 3×10⁴ cells/cm², and cultured overnight in 15% FBS-containing DMEM medium under the conditions of 5% CO₂ at 37° C. On the following day, the HEK293A cells were transfected with each of pcDEF3/mouse ALK2(WT)-EGFP, pcDEF3/human ALK2(WT)-EGFP, pcDEF3/human ALK2 (R206H)-EGFP, and pcDEF3, using Lipofectamine 2000 (Invitrogen), and further cultured overnight. On the following day, 100 μL each of the cell suspensions adjusted to 1×10⁶ cells/mL was dispensed into a 1.5-mL microfuge and centrifuged at 500 g for 5 minutes, and then the supernatant was removed. To the cells, 100 μL of purified IgG diluted to 1 μg/mL was added, and the cells were left for 30 minutes at 4° C. After the cells were washed with PBS three times, 100 μL of Alexa flour 647 Goat anti-Rat IgG (H+L) (Life Technologies) diluted to 1:200 was added, and the cells were further left for 30 minutes at 4° C. After the cells were washed with PBS three times, fluorescence was detected by a flow cytometer (FACS Aria II: BD Biosciences). The data was analyzed using BD Diva Software (BD Biosciences), and the intensity of EGFP expressed by the cells and the fluorescence intensity of stained Alexa flour 647 were plotted.

[2] = target: T2, mouse ALK2(WT)-EGFP on HEK293A cells (mouse, UniProt P37172 21-509); experiment: as above
T2 construct: Expressed from pcDEF3/mouse ALK2(WT)-EGFP; also called mALK2(WT)-EGFP; wild-type mouse ALK2; not shown: EGFP fused to ALK2
T2 sequence: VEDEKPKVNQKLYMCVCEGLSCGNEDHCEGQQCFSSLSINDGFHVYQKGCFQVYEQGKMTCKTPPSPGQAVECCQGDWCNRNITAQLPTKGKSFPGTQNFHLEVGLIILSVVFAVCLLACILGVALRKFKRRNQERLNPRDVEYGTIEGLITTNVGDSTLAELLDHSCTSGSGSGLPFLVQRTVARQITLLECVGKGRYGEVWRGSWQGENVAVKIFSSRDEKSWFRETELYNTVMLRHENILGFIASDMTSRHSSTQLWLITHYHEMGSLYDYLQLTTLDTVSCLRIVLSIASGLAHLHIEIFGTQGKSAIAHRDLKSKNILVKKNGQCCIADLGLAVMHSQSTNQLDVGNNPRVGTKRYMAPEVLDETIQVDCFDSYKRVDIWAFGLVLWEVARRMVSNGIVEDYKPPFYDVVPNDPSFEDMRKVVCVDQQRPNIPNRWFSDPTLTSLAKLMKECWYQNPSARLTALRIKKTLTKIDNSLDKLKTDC
Description: as §1

[3] = target: T3, Mouse ALK2-His&Fc (Sino Biological Inc., Cat. #50297-M03H) (mouse, UniProt P37172 21-123); experiment: ELISA, antigen coated at 1 µg/ml, hybridoma culture supernatant, ALP anti-rat IgG, O.D.492
T3 construct: Bought product; also called mALK2-Fc; not shown: His tag and Fc of the bought product
T3 sequence: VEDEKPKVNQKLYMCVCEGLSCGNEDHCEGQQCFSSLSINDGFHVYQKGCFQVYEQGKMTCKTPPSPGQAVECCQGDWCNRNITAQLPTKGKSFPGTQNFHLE
Description: One week after the cell fusion, using each culture supernatant, clones recognizing mouse ALK2-His&Fc used as the antigen were selected by the enzyme-linked immunosorbent assay (ELISA), and clones recognizing only human Fc (Sino Biological Inc.) were excluded. ELISA was performed as follows.
First, the antigen diluted to 1 μg/ml with PBS was immobilized onto a 96-well ELISA plate (NUNC, Cat. #442404) for 2 hours at room temperature or overnight at 4° C. The immobilized solution was removed, and the plate was blocked with a 0.5% skim milk solution dissolved in PBS for 30 minutes at room temperature. Next, the above-described culture supernatant of hybridomas was added, and the plate was left for 1 hour at room temperature. After the plate was washed, an ALP-labeled anti-rat IgG antibody (SBA, Inc.) diluted with 0.5% skim milk to 1:2500 was added, and the plate was further left for 1 hour at room temperature. After the plate was washed, a phenyl phosphate substrate was reacted for 20 minutes at room temperature, and then absorbance at a wavelength of 492 nm was measured.

Measured: binding result

B1: rat anti-ALK2 monoclonal antibody A2-25C (antibody, V domains shown)
VH: EVQLVESGGGLVQPGGSLKLSCAASGFTFSYYAMSWVCQAPTKGLEWVASISRGGDNTYYRDTVKGRFTTSRDNAKNTLYLQMDSLRSEDTATYYCARLNYNNYFDYWGQGVMVTVSS
VL: DIQMTQSPASLSASLEEIVTITCQASQDIGNWLSWYQQKPGKSPQLLIYGATSLADGVPSRFSGSRSGTQYSLKISRLRVEDIGIYYCLQAYSAPFTFGSGTKLEIKR
notes: Rat monoclonal IgG from a hybridoma; also called 25C11
binds: all assays above

B2: rat anti-ALK2 monoclonal antibody A2-27D (antibody, V domains shown)
VH: EVQLVESGGGLVQPGRSLKLSCLASGSTFSNYGMKWIRQAPGKGLEWVASISRSSTYIYYADTVKGRFTISRDNARNTLYLQMTSLRSEDTALYYCAAAISTPFYWYFDFWGPGTVVTVSS
VL: EIVLTQSPTTMAASPGEKVTLNCLASSSVSYMTWYQQKSGASPKLWIYGTSNLASGVPNRFSGSGSGTSYSLAISSMEAEDVATYYCLHLTSYPPYTFGAGTKLELKR
notes: Rat monoclonal IgG from a hybridoma; also called 27D11
binds: all assays above

B3: rat anti-ALK2 monoclonal antibody A2-15A (antibody, V domains shown)
VH: EVQLVESGGGLVQPGRSLKLSCAASGFTFSHYYMAWVRQAPTKGLEWVASITNSGGSINYRDSVKGRFTISRDNAKSTLYLQMDSLRSEDTATYYCTREGGENYGGYPPFAYWGQGTLVTVSS
VL: DIVLTQSPALAVSLGQRATISCRANQGVSLSRYNLMHWYQQKPGQKPKLLIYRSSNLASGIPARFSGSGSGTDFTLTINPVQADDIATYYCQQSRESPFTFGAGTKLELKR
notes: Rat monoclonal IgG from a hybridoma; also called 15A6
binds: all assays above

B4: rat anti-ALK2 monoclonal antibody A2-11E (antibody, V domains shown)
VH: EVQLVETGGGLVQPGRSLKLSCVASGFTFSNYYMYWIRQAPGKGLEWISSINTDGGSTYYPDSVKGRFAISRDNAENTVYLQMNSLRSEDTATYYCAKSTPNIPLAYWGQGTLVTVSS
VL: DIQMTQSPSLLSASVGDRVTLSCKASQNIYKYLNWFQQKLGEAPKLLIYYSNSLQTGIPSRFSGSGSGTDFTLTISSLQPEDVAIYFCFQYSSGPTFGPGTKLELKR
notes: Rat monoclonal IgG from a hybridoma; also called 11E2
binds: all assays above
